Measured values from paper PMC3286859.

How the values were obtained:
[1] = target: Drosophila cathepsin L purified from fly head extracts (Drosophila melanogaster (endogenous in fly heads)); assay: enzyme inhibition assay
[2] = target: recombinant Drosophila cathepsin B (Drosophila); assay: enzyme inhibition assay
[3] = system: Cc1cc(=O)oc2cc(NC(=O)[C@H](CCCNC(=N)N)NC(=O)[C@H](Cc3ccccc3)NC(=O)OCc3ccccc3)ccc12; assay: purified protein; conditions: 100 mM sodium acetate pH 5.0, 1 mM EDTA, 2 mM DTT, no crammer added

Row | Substance | Ki [1] [µM] | Ki [2] [µM] | Km [3] [µM]
1 | Drosophila cathepsin L (Drosophila melanogaster) | – | – | 3.85
2 | crammer Y12A (natural protein) | – | 18.9 | –
3 | crammer Y20A (natural protein) | – | 5.4 | –
4 | crammer F16A (natural protein) | – | 2.26 | –

Now from value to substance, other results behind:

Row | Ki [1] [µM] | Ki [2] [µM] | Substance | Km [3] [µM]
5 | 0.00136 | 0.79 | Drosophila melanogaster crammer, recombinant wild type (monomer) (natural protein) | –
6 | – | 1.87 | crammer C72S (natural protein) | –
